Measured values as given in paper PMC8134430.
pKd: −log10 of the molar value.

Molecular target: Recombinant pseudopilin domain of Naegleria gruberi GspG1 (NgGspG1) lacking the N-terminal hydrophobic part (Naegleria gruberi)
Assay: MST; Monolith NT.115; 10 nM protein labelled with Red-NHS dye NT-647, unlabelled protein titrated to 50 uM; 50 mM HEPES, 50 mM NaCl

pKd: 6.67
Substance: Recombinant pseudopilin domain of Naegleria gruberi GspG1 (NgGspG1) lacking the N-terminal hydrophobic part (domain or fragment)
